Experimental data published in US8580492B2, “Screening method for the identification of inhibitors of HIV Tat methylation by the lysine methyltransferase Set7/9” (priority 2007, dated 2013).
Ends that are not written are not given here.

T1: recombinant Set9 (Homo sapiens, UniProt Q8WTS6)
T1 construct: purchased Upstate
T1 sequence (Q8WTS6 whole entry, looked up): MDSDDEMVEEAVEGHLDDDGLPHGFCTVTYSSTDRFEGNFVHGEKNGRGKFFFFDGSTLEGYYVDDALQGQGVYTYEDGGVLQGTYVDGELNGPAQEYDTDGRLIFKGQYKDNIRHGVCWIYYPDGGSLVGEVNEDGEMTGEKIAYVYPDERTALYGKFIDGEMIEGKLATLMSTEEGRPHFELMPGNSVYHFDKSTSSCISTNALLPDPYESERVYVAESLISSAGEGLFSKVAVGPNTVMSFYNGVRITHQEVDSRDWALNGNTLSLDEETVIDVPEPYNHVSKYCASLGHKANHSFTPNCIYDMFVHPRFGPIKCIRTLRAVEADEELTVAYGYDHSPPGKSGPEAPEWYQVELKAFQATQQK

T2: p300 (Homo sapiens, UniProt Q09472)
T2 construct: Recombinant GST-p300 HAT was expressed in the BL21 strain of Escherichia coli; GST (N); made in house; host or cells: Escherichia coli BL21
T2 sequence (Q09472 1287-1663 limits assumed): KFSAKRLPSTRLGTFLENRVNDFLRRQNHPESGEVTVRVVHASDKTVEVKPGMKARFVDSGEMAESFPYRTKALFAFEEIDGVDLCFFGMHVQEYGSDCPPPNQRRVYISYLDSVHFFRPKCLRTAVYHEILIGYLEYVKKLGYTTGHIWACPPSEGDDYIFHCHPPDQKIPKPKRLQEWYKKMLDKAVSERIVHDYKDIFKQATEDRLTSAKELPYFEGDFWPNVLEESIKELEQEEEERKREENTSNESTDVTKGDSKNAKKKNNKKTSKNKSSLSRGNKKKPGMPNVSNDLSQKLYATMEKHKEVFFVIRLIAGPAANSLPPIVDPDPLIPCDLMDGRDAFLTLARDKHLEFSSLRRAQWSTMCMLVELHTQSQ


What was measured:
Format in all cases: biochemical
[1] = target: T1, recombinant Set9; test: In vitro methylation assay with recombinant Set9 (radiolabeled SAM autoradiography; MALDI-TOF with nonradioactive SAM); conditions: confirmed by MALDI-TOF
Procedure: (§1) Methylation assays were performed as described. (Nishioka et al. (2002) supra. In brief, 2 μg of calf thymus histones (Sigma), synthetic Tat protein or recombinant GST-IκBα were incubated with 0, 0.5, 1 or 2 μg of recombinant Set9 (specific activity 182 mU/mg, Upstate) or 0, 1 and 2 μg of G9a (specific activity 98 mU/mg, Upstate) in a buffer containing 50 mM TrisHCl pH 8.5, 5 mM MgCl2, 4 mM DTT and 1.1 μCi of ^3H-labeled S-adenosyl methionine (SAM) (Perkin Elmer) 30 min at 30° C. Reactions were stopped with sodium dodecyl sulfate (SDS) sample buffer and fractionated in a 15% SDS-polyacrylamide gel electrophoresis (SDS-PAGE) gel. After Coomassie staining and destaining, gels were treated with Amplify (Amersham Biosciences) for 30 min, dried and exposed to hyper-film (Kodak) overnight. The reactions performed with Tat peptides contained 100 μM of the different peptides and 1 μg of Set9 enzyme and were fractionated in a 10-20% Tris-Tricine gel (BioRad). For mass-spectrometry analysis, reactions were performed in the presence of 2 mM SAM (New England Biolabs) and analyzed in a MALDI-TOF instrument. In vitro acetylation assays were performed as described. Ott et al. (1999) supra.

[2] = target: T2, p300; test: In vitro acetylation assay with recombinant p300 and 14C-AcCoA; conditions: recombinant p300, 14C-AcCoA, autoradiography
Procedure: Recombinant GST-p300 HAT was expressed in the BL21 strain of Escherichia coli and purified on glutathione-Sepharose beads (Amersham Pharmacia Biotech) following manufacturer's protocol.
as §1

[3] = system: G9a; test: In vitro methylation assay with recombinant G9a; conditions: recombinant G9a 0, 1 and 2 μg, radiolabeled SAM
Procedure: as §1

Molecule	methylation by Set9 [1]	acetylation by p300 [2]	methylation by G9a [3]
K50Ac: ARM peptide carrying an acetyl group at position 50 (ISYGRK(Ac)KRRQRRRP; not fully specified)	No methylation		
K51me: ARM peptide monomethylated at K51 (ISYGRKK(Me)RRQRRRP)		acetylated	
Tat protein: full-length synthetic Tat protein (72 amino acids) (peptide, UniProt P04608 1-72, looked up, fragment) MEPVDPRLEPWKHPGSQPKTACTNCYCKKCCFHCQVCFITKALGISYGRKKRRQRRRAHQNSQTHQASLSKQ	methylated in response to increasing amounts of Set9 enzyme		did not result in methylation
